Experimental findings from the nanobody polyreactivity screen of Harvey et al. (2022) are described below.

The data set is described as follows: yeast display, Sf9 membrane polyspecificity reagent, FACS + sequencing; frameworks hold sequencing errors. The method, boiled down:
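Polyreactivity labels are assigned by the sorting gate from which each nanobody was recovered. The gates were low and high (top ~1%), set on anti-HA fluorescence for expression and streptavidin fluorescence for reagent binding. Before sorting, galactose-induced (36–48 hours) yeast display cells were stained for 1 hour at 4 °C with 10% biotinylated, detergent-solubilized Sf9 membrane reagent.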
Take “QVQLVESGGGLVQAGGSLRLSCAASGRIFYEYAMGWYRQAPGKEREVVAAISNSGGSTSYADSVKGRFSISRDNATNTDYLQMNSLQPEDTAVSYCAAGSHSGRAYYYWGEGTQVTVSS”: the “polyreactivity (PSR sort gate)” value is “high polyreactivity”.

Regarding “QVQLVESGGGLVQAGGSLRLSCAASGITFQYYDMGWYRQAPGKEREFVAAISWRSGRTYYADSVKGRFTISRDNAKNTVYLQMNSLKPDDTAVYYCTAALYGVTTDMDYWGQGTQVTVSS”, the “polyreactivity (PSR sort gate)” value is “high polyreactivity”.

Regarding “QVQLEESGGGLVQAGGSLRLSCAASGRIFSRYAMGWYRQAPGKERELVAAITQSGTSTYYADSVKGRFTISRDNAKNTVYLQMTSLKPEDTAVYYCNAYRQYRYDYWGQGTQVTVSS”, the “polyreactivity (PSR sort gate)” value is “low polyreactivity”.

As to “QVHLVESGGGLVQAGGSLRLSCAASGIIFSDYALGWYRQAPGKERELVAAITSSGCSTYYADSVKGRFTISRDNAKNTVYLQMNSLKPEDTAVYYCNARYRRKSWRPFDYWGQGTQVTVSS”, the “polyreactivity (PSR sort gate)” value is recorded as “high polyreactivity”.

In the case of “QVQLVESGGGLVQAGGSLRLSCAASGPTFYYYDMGLYRPAPGKERELVAAISATGGRTYYADSVKGRFTISRDNAKNTVYLQMNSLKPEDTAVYYCAAETPYLRRRLGMDYWGQGTQVTVSS”, the “polyreactivity (PSR sort gate)” value is given as “high polyreactivity”.

Regarding “QVQLVESGGGLVQAGGSLRLRCAASGRIFNGYGMGWYRQAPGKERELVAAITWSGGGTYYADTVKGRFTISRDNAKNTVYLQRNSLKPEDTAVYYCAAYSSSYPDYDSWGQGTQVTVSS”, the “polyreactivity (PSR sort gate)” value is reported as “low polyreactivity”.

As to “QVQLVESGGGLVQAGGSLRLICAASGRTFYRNDMGWSRQAPGKERELVAAISGSGGTTYYADSVKGRFTISRYNAKNTVYLQMNSLNPEDTAVDYCAVDGNFFGEVRPYDYWGQGTQVTVSS”, the “polyreactivity (PSR sort gate)” value is “low polyreactivity”.

On to “QVQLVESGGGLVQAGGSLRLSCAASGRTFYSYAMGWYRQAPGKERELVAAITSGDSTNYADSVKGRFTISRDNAKNTVYLQMNSLKPEDTAVYYCAAEYSGWYWYQHYNYWGQGTQVTVSS”, for which the “polyreactivity (PSR sort gate)” value is listed as “high polyreactivity”.

With “QVQLVESGGGLVQAGGSLRLSCAASVRIFGKYAMGRYRQAPGKERELVAAITNSGGRTYYAASVKGRFTISRDNAKNTVYLQMNSLKPEDTAVYYCAALYHASTRQMDYWGQGTQVTVSS”, the “polyreactivity (PSR sort gate)” value is reported as “high polyreactivity”.

Turning to “QVQLVESGGGLVQAGGSLRLSCAASGFTFRWYAMGWYRQAPGKERELVARISWDGGSTYYADSVKGRFTISRDNAKNTVYLQMNSLKPEDTAVYDCAKDWYYLRRNYDYWGQGTQVTVSS”, the “polyreactivity (PSR sort gate)” value is “high polyreactivity”.

Take “QVQLVESGGGLVQAGGSLRLSCAASGSIFAYNAMGWYRQAPGKERELVAAITGSGGSTDYADSVKGRFTISRDNAKNTVYLQMNSLKPEDTAVYYCNADWWSEWKLYDYWGQGTQVTVSS”: the “polyreactivity (PSR sort gate)” value is recorded as “low polyreactivity”.

For the sequence “LVQLQERVGVLVQAGGRLRLNCAASGTISPGGYMGWYRQAPGKELELVASINVGGSTNYADSVKGRFTISRDNAKNTVYLQMNRLKPEDNAVYYCAVWGRNRLQLSYWGQGTQVTVSS”, the “polyreactivity (PSR sort gate)” value is given as “low polyreactivity”.

As to “QVQLVESGGGLVQAGGSLRLSCAASGRIFVPYAMGWYRQAPGKERELVAAISWNTGSTYYADSVKGRFTISRDNAKNTVYLQMNSLKPEDTAVYYCAAGSRVRYDGGYKINGYWGQGTQVTVSS”, the “polyreactivity (PSR sort gate)” value is reported as “high polyreactivity”.

For “QVQLVESGGGLVQAGGSRRLRCAASGSIISSYALGWYRQAPGQEMEFVAAISTGGRTYYADSVKGRFTISRDNGKNTVYLQMNSLKPEDTAVYYCAADGPLPHKVGTHTLDYWGQGTQVTVSS”, the “polyreactivity (PSR sort gate)” value is on record as “low polyreactivity”.

Take “QVQLVESGGGLVQAGGSLRLSCAASGRTFRIYAMGWYRQAPGKERELVAAIRWSGGTTYYADSVKGGFTISRDNAKNTVYLQMNSLNPDDTAVYYCAADSTNRYDYWGQGTQVTVSS”: the “polyreactivity (PSR sort gate)” value is “high polyreactivity”.

With “QVQLVESGGGLVQAGGSLRLSCAATGSIFSRYAMGWYRQAPGKERELVAAISWRGGGTYYADSVKGRFTISRDNAKNTVYLQMNSLKPVDTAVYYCAADDTPDDSDYWGQGTQVTVSS”, the “polyreactivity (PSR sort gate)” value is “low polyreactivity”.

Regarding “QVQLVESGGGLVQAGGSLRLSCAASGYTFRYYVMGWYRQAPGKERELVATISRGGRTNYADSVKGRFTISRDNAKNTVYLQMNSLKPEDTAVYYCNADWSRVPYRYDYWGQGTQVTVSS”, the “polyreactivity (PSR sort gate)” value was “high polyreactivity”.

Take “QVQLVEAGGGLVQAGGSLRLSCASSGSIITVYDMGWYRQPPGKERELVATITGSDGRTDYADSVKGRFTISRDNAKNTVYLQMNSLKPEDTAVYYCAAHVFQWKNRQSLLFDQGYYWGQGTQVTVSS”: the “polyreactivity (PSR sort gate)” value was “low polyreactivity”.

Take “QVQLEESGGGLVQAGGSLRLSCAASGITFLNYAMGWYRQATGKERELVAAISWSGGRTYYADSVKGRFTISRDNAKNTVYLQMNSLKPEDTAVYYCAVRGSWYSEHNYWGQGTQVTVSS”: the “polyreactivity (PSR sort gate)” value is recorded as “high polyreactivity”.

For “QVQLVESGGGLVQAGGSLRLSCAASGSIFARYALGWYRQAPGKERELVDAITRSGVSTYSADSVKGRFTISRDNAKNTVYLQMNSLKPEDTAVYYCNADYPIRSSPYGYYYWGQGTQVTVSS”, the “polyreactivity (PSR sort gate)” value is given as “high polyreactivity”.

With “QVQLVESGGGLVQAGGSLRLSCAASGRIFDLYAMGWYRQAPGKERELVATISGSGGSTYYADSVKGRFTISRDNAKNTVYLQMNSLKPEDTAVFYCAAVSVSSWYDYWGLGTQVTVSS”, the “polyreactivity (PSR sort gate)” value is on record as “low polyreactivity”.

In the case of “QVQLVESGGGLVQAGGSLRLSCGASGRIFGRYAMGWYRQAPAKERELVAVITFSGGDTFYADSVKGRFTISRDNAKNTVYLQMNSLKPEDTAVYYCAKSQGFETYRNVSIFGYWGQGTQVTVSS”, the “polyreactivity (PSR sort gate)” value was “low polyreactivity”.

For “QVQLVESGGGLVQAGGSLRLSCAASGRIFYANDMGWYRQAPWKERELVAAITNTVSTTYADSVKGRFTISRDNAKNTVYLQMNSLKPEDTAVYYCNGDDPYVPKADMGYWGQGTQVTVSS”, the “polyreactivity (PSR sort gate)” value is on record as “low polyreactivity”.

In the case of “QVQLVESGGCLVKAGGSLRISCAASGFTFTKYAMGWYRPAPGKESELVAAINRSGRTYYADSVKGRFTISRDNAKNTVYLQMNSLKPEDTAVYDCAAYTRYQYRAYDYWGQGTQVTVSS”, the “polyreactivity (PSR sort gate)” value is recorded as “high polyreactivity”.

For “QEQQQESGGGQLQAGGSLLLSCAASGNIIRYYYMGWYRQAPGKERELVAAITYGTSTNYADSVKGRFTISRDNAKYSVYLQMISLKPEDTAVYYCAVDVNYGDPLDNWGQGTQVTVSS”, the “polyreactivity (PSR sort gate)” value is “high polyreactivity”.

Consider “QVQLVESGGGLVQAGGSLSLSCAASGFIFDYYTMGWYRQAPGKEREFVAAINRRGDITYYADSVKGRFTISRDNAKNTVYLQMNSLKPEDTAVYSCAATLTWSSRYEYGYWGQGTQVTVSS”, for which the “polyreactivity (PSR sort gate)” value is given as “low polyreactivity”.

Regarding “QVQLVESGGGLVQAGGRLRLSCAASGSTFWLNAMGWSRQATGKERELFADSSRSGGSTYYADSVKGRFTISRDNAKNTVYLQMNSLKPEDTAVYYCAADSWPDQFTVYPGGDYWGQGTQVTVSS”, the “polyreactivity (PSR sort gate)” value was “low polyreactivity”.

As for “QVQLVESGGGLVQAGGSLRLSCAASGRTLRTYTMGWYRQAPGKERELVAAISSSDDSTYYADSVKGRFTISRDNEKNTVYLQMNSLKPEDNAVYSCAKDGLYPTEYGYWGQGTQVTVSS”, the “polyreactivity (PSR sort gate)” value is listed as “high polyreactivity”.

For “QVQLVESGGGLVQAGGSLRLSCAASGRIFARNTMGWYRQAPGKERELVAAISWGGGRTYYADSVKGRFTISRDNAKNTVYLQMNSLKPEDTAVYYCAAETLQIPRGEYWGQGTQVTVSS”, the “polyreactivity (PSR sort gate)” value was “low polyreactivity”.

For the sequence “QVHLVESGGGLVQAGGSLRLSCAASGRTFWDYAMRWYRQAPGKEREFVAAINTYGGRTYYADSVKGRFTISRDNAINTVYLQMNSLKPEDTAVYYCADRTRDRAYDSWGQGTEVTVSS”, the “polyreactivity (PSR sort gate)” value was “high polyreactivity”.
